Laboratory results as given in patent publication US6482799B1, “Self-preserving multipurpose ophthalmic solutions incorporating a polypeptide antimicrobial” (The Regents of the University of California, priority 1999, dated 2002).
Where no end group is shown, it is not given here.

Test: Corneal penetration of radioactive topical ocular indolicidin formulation
Type: in vivo, New Zealand White Rabbits
Protocol: The objective of this study was to determine the corneal penetration potential of a ^3H-labelled indolicidin molecule. The ^3H labeled L-indolicidin; L-IND was tested for corneal penetration using New Zealand White Rabbits (Western Oregon Rabbit Co.). The rabbit is one of the model species for the assessment of toxicity and is one of the species recommended for that purpose by toxicity testing guidelines of all regulatory agencies. See “Animal Models in the Evaluation of Chemotherapy of Ocular Infections” in Experimental Models in Antimicrobial Chemotherapy, Vol 1, p 187-211.
Administration of ^3H-L-IND was by epicomeal application into both eyes, 20 μL L-IND once hourly for six applications. The animals were euthanized immediately prior to harvesting of aqueous humor.
Male animals were initiated as young adults and weighed 2-3 kg. Two animals were assigned to the test (2/group; one treatment group). […]
Clinical signs were evaluated immediately after 1st dose administration and immediately prior to euthanasia and necroscopy. […]
Evaluations were confined to the eye. […] An estimate of the total volume of aqueous humor harvested was recorded and analyzed for ^3H content. […]
The two samples of aqueous humor from each of the rabbits were analyzed for their radioactivity levels. […]

With “^3H-Indolicidin: ^3H-labelled indolicidin molecule for the corneal penetration study (ILPWKWPWWPWRR-NH2; also: tritium label; UniProt P33046 131-143, looked up)” the “radioactivity level in aqueous humor” value (20 μL epicorneal, once hourly for six applications, both eyes) was “equal to that of background counts” and the corneal penetration (topical ocular, six applications) was “did not penetrate the cornea”.
